Experimental data from IntAct's records for PubMed 9528852.

B1: Ubiquitin carboxyl-terminal hydrolase BAP1 (Mus musculus), Q99PU7 (parent)
chain: MNKGWLELESDPGLFTLLVEDFGVKGVQVEEIYDLQSKCQGPVYGFIFLFKWIEERRSRRKVSTLVDDTSVIDDDIVNNMFFAHQLIPNSCATHALLSVLLNCSNVDLGPTLSRMKDFTKGFSPESKGYAIGNAPELAKAHNSHARPEPRHLPEKQNGLSAVRTMEAFHFVSYVPITGRLFELDGLKVYPIDHGPWGEDEEWTDKARRVIMERIGLATAGEPYHDIRFNLMAVVPDRRIKYETRLHVLKVNRQTVLEALQQLIRVTQPELIQTHKSQESQLPEESKPASSKSPLGLEAGRTPVASECTQTDGAEEVAGSCPQTTTHSPPSKCKLVVKPPGSSLNGVPPNPAPIVQRLPAFLDNHNYAKSPMQEEEDLAAGVGRSRVPVRAPQQYSEDEDDYEDEDEDVQNTNPAIRYKRKGTGKPGSLSNSSDGQLSVLQPNTINVLTEKLQESQKDLSVPLSIKTSSGAGSPAVAVPTHSQPSPTPSNESTDTASEIGSAFNSPLRSPIRSANPTRPSSPVTSHISKVLFGEDDSLLRVDCIRYNRAVRDLGPVISTGLLHLAEDGVLSPLALTEGGKGSSPSTRSSQGSQGSSGLEEKEVVEVTESRDKPGLNRSSEPLSGEKYSPKELLALLKCVEAEIANYEACLKEEVEKRKKFKIDDQRRTHNYDEFICTFISMLAQEGMLANLVEQNISVRRRQGVSIGRLHKQRKPDRRKRSRPYKAKRQ

Variants of: B1
Settings: with brca1_human BRCA1, P38398
Sequence of brca1_human BRCA1, P38398 (P38398 whole entry, looked up): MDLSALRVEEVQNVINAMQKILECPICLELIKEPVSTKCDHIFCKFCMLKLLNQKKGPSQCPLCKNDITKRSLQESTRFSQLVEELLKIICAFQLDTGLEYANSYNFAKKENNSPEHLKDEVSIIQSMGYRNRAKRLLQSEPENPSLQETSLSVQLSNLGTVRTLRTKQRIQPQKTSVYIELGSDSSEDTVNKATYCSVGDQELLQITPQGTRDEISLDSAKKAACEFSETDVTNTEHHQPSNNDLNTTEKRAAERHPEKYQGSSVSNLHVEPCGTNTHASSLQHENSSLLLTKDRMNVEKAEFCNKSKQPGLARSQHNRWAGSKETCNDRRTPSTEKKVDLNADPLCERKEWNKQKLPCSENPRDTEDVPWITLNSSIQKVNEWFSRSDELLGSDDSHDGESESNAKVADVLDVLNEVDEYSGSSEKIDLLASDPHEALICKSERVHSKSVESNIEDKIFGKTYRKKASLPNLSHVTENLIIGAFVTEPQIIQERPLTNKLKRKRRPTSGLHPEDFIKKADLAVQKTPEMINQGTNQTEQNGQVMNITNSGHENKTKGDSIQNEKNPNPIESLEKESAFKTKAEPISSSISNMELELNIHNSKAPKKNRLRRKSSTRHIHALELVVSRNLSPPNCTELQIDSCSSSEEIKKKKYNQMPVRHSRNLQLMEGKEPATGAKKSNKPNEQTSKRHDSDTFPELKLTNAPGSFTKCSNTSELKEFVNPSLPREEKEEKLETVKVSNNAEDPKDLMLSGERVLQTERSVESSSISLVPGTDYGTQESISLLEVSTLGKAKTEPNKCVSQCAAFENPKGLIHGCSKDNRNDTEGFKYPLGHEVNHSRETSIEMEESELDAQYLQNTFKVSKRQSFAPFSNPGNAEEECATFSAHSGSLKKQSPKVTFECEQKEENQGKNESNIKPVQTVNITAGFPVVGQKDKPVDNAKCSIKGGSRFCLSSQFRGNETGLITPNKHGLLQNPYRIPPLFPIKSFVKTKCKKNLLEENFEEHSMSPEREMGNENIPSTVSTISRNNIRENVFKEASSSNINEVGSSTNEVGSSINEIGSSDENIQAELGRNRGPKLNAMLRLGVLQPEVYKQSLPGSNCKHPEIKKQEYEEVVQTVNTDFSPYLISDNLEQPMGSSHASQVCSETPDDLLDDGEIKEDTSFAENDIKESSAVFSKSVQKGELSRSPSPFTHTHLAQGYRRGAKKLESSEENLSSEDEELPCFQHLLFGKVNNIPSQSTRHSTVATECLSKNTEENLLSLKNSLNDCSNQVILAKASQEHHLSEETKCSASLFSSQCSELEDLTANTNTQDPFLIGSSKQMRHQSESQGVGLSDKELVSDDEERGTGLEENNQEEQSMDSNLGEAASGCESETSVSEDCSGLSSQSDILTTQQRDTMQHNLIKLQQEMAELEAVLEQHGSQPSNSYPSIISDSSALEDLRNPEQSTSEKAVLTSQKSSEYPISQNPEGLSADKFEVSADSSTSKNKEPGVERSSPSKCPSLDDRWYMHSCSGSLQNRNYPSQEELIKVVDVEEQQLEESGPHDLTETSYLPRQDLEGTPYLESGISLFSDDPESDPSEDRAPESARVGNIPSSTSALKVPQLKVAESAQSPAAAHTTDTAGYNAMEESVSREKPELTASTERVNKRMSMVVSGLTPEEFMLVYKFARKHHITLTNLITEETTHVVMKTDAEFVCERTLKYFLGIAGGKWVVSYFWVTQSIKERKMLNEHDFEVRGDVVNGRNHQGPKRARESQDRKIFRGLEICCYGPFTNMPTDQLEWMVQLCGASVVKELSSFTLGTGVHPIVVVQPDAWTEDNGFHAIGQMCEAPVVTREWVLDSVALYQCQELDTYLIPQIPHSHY

Variant | effect of a mutation on the interaction
L690P | disrupting interaction
